# Measurements: patent publication US20250339531A1, “DUX4 POLYPEPTIDES AND NUCLEIC ACIDS FOR TREATING INFLAMMATORY AND AUTOIMMUNE CONDITIONS” (Fred Hutchinson Cancer Center, priority 2021, published 2025)
# Assays:
# [1] = biological target: Tubulin alpha chain (Homo sapiens) (UniProt F5H5D3); experiment: anti-FLAG co-IP LC-MS, exp 3, +IFNg +Dox
# [2] = biological target: Y-box-binding protein 3 (Homo sapiens) (UniProt P16989); experiment: anti-FLAG co-IP LC-MS, exp 3, +IFNg +Dox
# [3] = biological target: Importin-5 (Fragment) (Homo sapiens) (UniProt O00410); experiment: anti-FLAG co-IP LC-MS, exp 3, +IFNg +Dox
# [4] = biological target: Nucleosome assembly protein 1-like 1 (Homo sapiens) (UniProt P55209); experiment: anti-FLAG co-IP LC-MS, exp 3, +IFNg +Dox
# [5] = biological target: Endoplasmic reticulum chaperone BiP (Homo sapiens) (UniProt P11021); experiment: anti-FLAG co-IP LC-MS, exp 3, +IFNg +Dox
# [6] = biological target: Eukaryotic translation initiation factor 3 subunit A (Homo sapiens) (UniProt Q14152); experiment: anti-FLAG co-IP LC-MS, exp 3, +IFNg +Dox
# [7] = biological target: Plasminogen activator inhibitor 1 RNA-binding protein (Homo sapiens) (UniProt Q8NC51); experiment: anti-FLAG co-IP LC-MS, exp 3, +IFNg +Dox
# [8] = biological target: S-adenosylhomocysteine hydrolase-like protein 1 (Homo sapiens) (UniProt O43865); experiment: anti-FLAG co-IP LC-MS, exp 3, +IFNg +Dox
# [9] = biological target: Prelamin-A/C (Homo sapiens) (UniProt P02545); experiment: anti-FLAG co-IP LC-MS, exp 3, +IFNg +Dox
# [10] = biological target: Probable ATP-dependent RNA helicase DDX6 (Homo sapiens) (UniProt P26196); experiment: anti-FLAG co-IP LC-MS, exp 3, +IFNg +Dox
# [11] = biological target: Tubulin beta chain (Homo sapiens) (UniProt P07437); experiment: anti-FLAG co-IP LC-MS, exp 3, +IFNg +Dox
# [12] = biological target: Spectrin beta chain (Homo sapiens) (UniProt Q01082); experiment: anti-FLAG co-IP LC-MS, exp 3, +IFNg +Dox
# [13] = biological target: Junctional sarcoplasmic reticulum protein 1 (Homo sapiens) (UniProt Q96MG2); experiment: anti-FLAG co-IP LC-MS, exp 3, +IFNg +Dox
# [14] = biological target: Protein disulfide-isomerase (Homo sapiens) (UniProt P07237); experiment: anti-FLAG co-IP LC-MS, exp 3, +IFNg +Dox
# [15] = biological target: D-3-phosphoglycerate dehydrogenase (Homo sapiens) (UniProt O43175); experiment: anti-FLAG co-IP LC-MS, exp 3, +IFNg +Dox
# [16] = biological target: Importin subunit beta-1 (Homo sapiens) (UniProt Q14974); experiment: anti-FLAG co-IP LC-MS, exp 3, +IFNg +Dox
# [17] = biological target: Sodium/potassium-transporting ATPase subunit alpha-1 (Homo sapiens) (UniProt P05023); experiment: anti-FLAG co-IP LC-MS, exp 3, +IFNg +Dox
# Filamin-C (Homo sapiens) = Filamin-C (Homo sapiens) (UniProt Q14315); experiment: anti-FLAG co-IP LC-MS, exp 3, +IFNg +Dox
# [18] = biological target: 60S ribosomal protein L11 (Homo sapiens) (UniProt P62913); experiment: anti-FLAG co-IP LC-MS, exp 3, +IFNg +Dox
# [19] = biological target: Ras GTPase-activating protein-binding protein 1 (Homo sapiens) (UniProt Q13283); experiment: anti-FLAG co-IP LC-MS, exp 3, +IFNg +Dox
# [20] = biological target: Heat shock 70 kDa protein 1B (Homo sapiens) (UniProt P0DMV9); experiment: anti-FLAG co-IP LC-MS, exp 3, +IFNg +Dox
# [21] = biological target: Dolichyl-diphosphooligosaccharide--protein glycosyltransferase subunit 1 (Homo sapiens) (UniProt P04843); experiment: anti-FLAG co-IP LC-MS, exp 3, +IFNg +Dox
# [22] = biological target: Ribosome-binding protein 1 (Homo sapiens) (UniProt Q9P2E9); experiment: anti-FLAG co-IP LC-MS, exp 3, +IFNg +Dox
# [23] = biological target: Phosphate carrier protein, mitochondrial (Homo sapiens) (UniProt Q00325); experiment: anti-FLAG co-IP LC-MS, exp 4, +Dox +IFNG
# [24] = biological target: 4F2 cell-surface antigen heavy chain (Homo sapiens) (UniProt P08195); experiment: anti-FLAG co-IP LC-MS, exp 4, +Dox +IFNG
# [25] = biological target: Reticulon-4 (Homo sapiens) (UniProt Q9NQC3); experiment: anti-FLAG co-IP LC-MS, exp 4, +Dox +IFNG
# [26] = biological target: Calpain-2 catalytic subunit (Homo sapiens) (UniProt P17655); experiment: anti-FLAG co-IP LC-MS, exp 4, +Dox +IFNG
# [27] = biological target: 60S ribosomal protein L8 (Homo sapiens) (UniProt P62917); experiment: anti-FLAG co-IP LC-MS, exp 4, +Dox +IFNG
# [28] = biological target: 14-3-3 protein sigma (Homo sapiens) (UniProt P31947); experiment: anti-FLAG co-IP LC-MS, exp 4, +Dox +IFNG
# [29] = biological target: Alpha-actinin-4 (Homo sapiens) (UniProt O43707); experiment: anti-FLAG co-IP LC-MS, exp 4, +Dox +IFNG
# [30] = biological target: Heterogeneous nuclear ribonucleoprotein H (Homo sapiens) (UniProt G8JLB6); experiment: anti-FLAG co-IP LC-MS, exp 4, +Dox +IFNG
# [31] = biological target: Serine/threonine-protein kinase 38 (Homo sapiens) (UniProt Q15208); experiment: anti-FLAG co-IP LC-MS, exp 4, +Dox +IFNG
# [32] = biological target: Procollagen-lysine,2-oxoglutarate 5-dioxygenase 2 (Homo sapiens) (UniProt O00469); experiment: anti-FLAG co-IP LC-MS, exp 4, +Dox +IFNG
# [33] = biological target: Alpha-enolase (Homo sapiens) (UniProt P06733); experiment: anti-FLAG co-IP LC-MS, exp 4, +Dox +IFNG
# [34] = biological target: Transportin-1 (Homo sapiens) (UniProt Q92973); experiment: anti-FLAG co-IP LC-MS, exp 4, +Dox +IFNG
# [35] = biological target: Insulin-like growth factor 2 mRNA-binding protein 2 (Homo sapiens) (UniProt F8W930); experiment: anti-FLAG co-IP LC-MS, exp 4, +Dox +IFNG
# Insulin-like growth factor 2 mRNA-binding protein 2 (Homo sapiens), sequence (F8W930 entry or part of it limits assumed, form in doubt): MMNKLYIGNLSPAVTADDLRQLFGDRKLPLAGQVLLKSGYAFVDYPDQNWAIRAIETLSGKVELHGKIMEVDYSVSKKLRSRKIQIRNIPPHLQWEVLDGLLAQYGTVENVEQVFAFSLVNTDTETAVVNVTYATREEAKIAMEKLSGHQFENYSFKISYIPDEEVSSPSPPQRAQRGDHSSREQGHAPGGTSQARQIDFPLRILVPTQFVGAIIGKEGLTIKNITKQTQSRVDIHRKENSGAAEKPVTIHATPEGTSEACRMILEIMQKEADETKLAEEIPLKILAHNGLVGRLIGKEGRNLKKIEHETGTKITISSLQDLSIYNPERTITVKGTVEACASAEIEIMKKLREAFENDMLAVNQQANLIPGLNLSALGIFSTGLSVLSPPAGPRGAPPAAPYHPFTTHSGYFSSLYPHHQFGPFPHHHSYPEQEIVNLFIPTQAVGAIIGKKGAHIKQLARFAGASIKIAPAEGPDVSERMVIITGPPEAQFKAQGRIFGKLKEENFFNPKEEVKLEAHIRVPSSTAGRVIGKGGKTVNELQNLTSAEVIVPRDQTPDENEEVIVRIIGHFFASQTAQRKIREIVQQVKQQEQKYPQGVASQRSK
# Alpha-actinin-4 (Homo sapiens), sequence (O43707 whole entry): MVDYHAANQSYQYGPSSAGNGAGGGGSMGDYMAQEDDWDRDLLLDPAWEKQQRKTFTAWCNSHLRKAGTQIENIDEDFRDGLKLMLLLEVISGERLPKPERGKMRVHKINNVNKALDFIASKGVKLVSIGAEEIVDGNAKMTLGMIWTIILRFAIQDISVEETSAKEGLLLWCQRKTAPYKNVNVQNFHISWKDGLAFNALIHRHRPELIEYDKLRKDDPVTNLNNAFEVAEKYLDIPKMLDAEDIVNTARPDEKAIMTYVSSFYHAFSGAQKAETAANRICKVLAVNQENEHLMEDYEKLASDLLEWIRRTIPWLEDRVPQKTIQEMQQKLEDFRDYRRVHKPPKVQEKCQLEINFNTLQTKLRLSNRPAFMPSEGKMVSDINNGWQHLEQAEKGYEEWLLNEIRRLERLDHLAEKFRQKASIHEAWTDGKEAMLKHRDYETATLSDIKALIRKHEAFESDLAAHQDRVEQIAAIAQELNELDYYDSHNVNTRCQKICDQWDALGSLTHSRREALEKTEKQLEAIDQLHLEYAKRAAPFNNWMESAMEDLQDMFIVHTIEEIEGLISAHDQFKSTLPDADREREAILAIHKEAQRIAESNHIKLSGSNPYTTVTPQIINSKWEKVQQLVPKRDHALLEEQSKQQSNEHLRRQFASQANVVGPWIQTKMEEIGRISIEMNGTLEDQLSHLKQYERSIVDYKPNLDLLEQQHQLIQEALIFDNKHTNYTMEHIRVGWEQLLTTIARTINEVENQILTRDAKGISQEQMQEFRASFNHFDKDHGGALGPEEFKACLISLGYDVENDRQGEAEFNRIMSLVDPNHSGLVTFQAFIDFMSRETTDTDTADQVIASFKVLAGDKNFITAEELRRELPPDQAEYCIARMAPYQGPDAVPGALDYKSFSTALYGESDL
# Spectrin beta chain (Homo sapiens), sequence (Q01082 2-2364 limits assumed): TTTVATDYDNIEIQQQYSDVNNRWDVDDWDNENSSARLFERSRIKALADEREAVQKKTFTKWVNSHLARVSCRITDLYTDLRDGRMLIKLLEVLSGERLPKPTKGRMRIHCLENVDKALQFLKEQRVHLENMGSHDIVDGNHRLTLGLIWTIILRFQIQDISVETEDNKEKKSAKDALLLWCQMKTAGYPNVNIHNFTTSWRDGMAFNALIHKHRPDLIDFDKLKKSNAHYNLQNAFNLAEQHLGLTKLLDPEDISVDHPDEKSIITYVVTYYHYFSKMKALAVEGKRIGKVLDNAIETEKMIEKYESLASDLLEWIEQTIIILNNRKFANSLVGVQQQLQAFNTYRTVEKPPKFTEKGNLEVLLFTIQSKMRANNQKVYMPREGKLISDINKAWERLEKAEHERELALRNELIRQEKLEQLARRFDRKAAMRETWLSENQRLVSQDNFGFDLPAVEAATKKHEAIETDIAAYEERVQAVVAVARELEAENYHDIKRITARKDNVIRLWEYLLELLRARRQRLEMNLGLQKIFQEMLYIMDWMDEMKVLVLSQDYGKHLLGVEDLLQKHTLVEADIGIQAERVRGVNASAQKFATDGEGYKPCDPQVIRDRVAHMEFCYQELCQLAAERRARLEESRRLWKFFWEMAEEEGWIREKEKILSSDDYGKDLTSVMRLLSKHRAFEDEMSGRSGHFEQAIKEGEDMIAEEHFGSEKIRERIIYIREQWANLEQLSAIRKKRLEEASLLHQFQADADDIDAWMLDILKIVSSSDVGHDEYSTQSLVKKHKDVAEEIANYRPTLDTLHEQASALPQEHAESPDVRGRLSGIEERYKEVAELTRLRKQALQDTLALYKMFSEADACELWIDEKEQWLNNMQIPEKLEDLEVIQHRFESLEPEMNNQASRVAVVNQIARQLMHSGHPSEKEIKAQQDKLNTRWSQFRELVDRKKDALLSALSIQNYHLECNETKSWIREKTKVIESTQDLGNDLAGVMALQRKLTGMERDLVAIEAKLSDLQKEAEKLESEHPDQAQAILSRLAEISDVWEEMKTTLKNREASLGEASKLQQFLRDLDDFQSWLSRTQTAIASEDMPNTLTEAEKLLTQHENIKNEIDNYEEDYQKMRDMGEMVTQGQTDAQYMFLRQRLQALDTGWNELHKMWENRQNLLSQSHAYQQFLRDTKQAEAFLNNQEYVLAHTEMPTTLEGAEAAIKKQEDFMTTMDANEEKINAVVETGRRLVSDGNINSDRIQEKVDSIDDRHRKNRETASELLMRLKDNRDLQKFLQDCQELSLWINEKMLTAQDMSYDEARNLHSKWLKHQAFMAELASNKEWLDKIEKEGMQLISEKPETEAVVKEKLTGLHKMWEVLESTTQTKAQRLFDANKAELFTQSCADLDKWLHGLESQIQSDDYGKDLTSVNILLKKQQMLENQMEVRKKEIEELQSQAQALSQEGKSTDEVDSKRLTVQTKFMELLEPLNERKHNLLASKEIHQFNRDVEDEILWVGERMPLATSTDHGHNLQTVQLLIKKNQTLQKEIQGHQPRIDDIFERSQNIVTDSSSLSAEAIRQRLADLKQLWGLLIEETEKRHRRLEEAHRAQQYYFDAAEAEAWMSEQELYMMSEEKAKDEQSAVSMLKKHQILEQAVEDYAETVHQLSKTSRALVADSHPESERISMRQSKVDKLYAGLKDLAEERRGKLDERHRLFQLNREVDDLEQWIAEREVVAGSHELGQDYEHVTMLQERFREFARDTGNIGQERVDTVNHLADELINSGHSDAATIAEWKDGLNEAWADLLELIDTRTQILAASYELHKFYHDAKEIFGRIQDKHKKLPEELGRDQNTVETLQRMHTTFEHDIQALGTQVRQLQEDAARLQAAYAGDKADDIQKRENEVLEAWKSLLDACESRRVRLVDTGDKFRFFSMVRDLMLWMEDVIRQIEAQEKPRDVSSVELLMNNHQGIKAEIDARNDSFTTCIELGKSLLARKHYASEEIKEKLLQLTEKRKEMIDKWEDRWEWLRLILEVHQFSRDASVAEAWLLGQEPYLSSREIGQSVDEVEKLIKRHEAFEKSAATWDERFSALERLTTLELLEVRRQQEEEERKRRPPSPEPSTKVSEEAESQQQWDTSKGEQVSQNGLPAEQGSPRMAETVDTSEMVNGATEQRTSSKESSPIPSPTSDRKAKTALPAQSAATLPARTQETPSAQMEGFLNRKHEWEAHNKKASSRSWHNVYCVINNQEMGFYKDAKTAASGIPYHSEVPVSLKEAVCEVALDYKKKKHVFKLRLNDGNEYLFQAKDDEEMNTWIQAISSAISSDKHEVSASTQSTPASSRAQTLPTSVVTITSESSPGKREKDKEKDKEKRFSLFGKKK
# Tubulin alpha chain (Homo sapiens), sequence (F5H5D3 entry or part of it limits assumed, form in doubt): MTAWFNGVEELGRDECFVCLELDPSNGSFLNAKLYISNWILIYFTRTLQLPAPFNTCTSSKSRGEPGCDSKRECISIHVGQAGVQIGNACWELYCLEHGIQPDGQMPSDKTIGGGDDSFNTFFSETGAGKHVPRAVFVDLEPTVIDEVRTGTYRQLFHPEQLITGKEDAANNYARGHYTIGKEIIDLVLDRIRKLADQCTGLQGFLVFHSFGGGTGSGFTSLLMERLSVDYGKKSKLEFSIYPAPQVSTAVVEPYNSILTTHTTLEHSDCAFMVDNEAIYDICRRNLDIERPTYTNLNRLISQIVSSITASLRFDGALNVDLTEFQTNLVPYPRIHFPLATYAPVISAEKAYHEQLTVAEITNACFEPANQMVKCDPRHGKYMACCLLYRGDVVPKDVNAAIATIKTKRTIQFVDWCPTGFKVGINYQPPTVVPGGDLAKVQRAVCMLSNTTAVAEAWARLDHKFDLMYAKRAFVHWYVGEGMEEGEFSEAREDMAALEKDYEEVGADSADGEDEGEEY
# D-3-phosphoglycerate dehydrogenase (Homo sapiens), sequence (O43175 2-533 limits assumed): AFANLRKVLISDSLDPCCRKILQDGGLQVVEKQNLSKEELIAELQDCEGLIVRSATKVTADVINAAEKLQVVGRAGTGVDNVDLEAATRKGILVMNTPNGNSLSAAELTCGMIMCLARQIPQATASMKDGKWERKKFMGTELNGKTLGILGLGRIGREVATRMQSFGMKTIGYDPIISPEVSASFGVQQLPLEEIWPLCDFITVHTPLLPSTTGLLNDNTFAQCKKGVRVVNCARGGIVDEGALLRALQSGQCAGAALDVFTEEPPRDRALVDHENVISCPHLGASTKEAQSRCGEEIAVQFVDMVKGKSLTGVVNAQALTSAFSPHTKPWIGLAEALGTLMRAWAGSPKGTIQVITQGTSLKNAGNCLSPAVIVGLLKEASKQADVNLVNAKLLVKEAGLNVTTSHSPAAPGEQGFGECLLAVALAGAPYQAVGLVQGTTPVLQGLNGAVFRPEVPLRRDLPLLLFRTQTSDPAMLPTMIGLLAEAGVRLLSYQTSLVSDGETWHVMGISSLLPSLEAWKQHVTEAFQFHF
substance,measurement,setting,value
i3XFLAG-NLS-CTDaa154-424,PSMs,[1],47 PSMs
same,PSMs,[2],3 PSMs
same,PSMs,[3],3 PSMs
same,PSMs,[4],5 PSMs
same,PSMs,[5],62 PSMs
same,PSMs,[6],2 PSMs
same,PSMs,[7],3 PSMs
same,PSMs,[8],11 PSMs
same,PSMs,[9],3 PSMs
same,PSMs,[10],3 PSMs
same,PSMs,[11],75 PSMs
same,PSMs,[12],9 PSMs
same,PSMs,[13],10 PSMs
same,PSMs,[14],5 PSMs
same,PSMs,[15],3 PSMs
same,PSMs,[16],5 PSMs
same,PSMs,[17],3 PSMs
same,PSMs,Filamin-C (Homo sapiens),7 PSMs
same,PSMs,[18],2 PSMs
same,PSMs,[19],2 PSMs
same,PSMs,[20],10 PSMs
same,PSMs,[21],14 PSMs
same,PSMs,[22],68 PSMs
same,PSMs,[23],2 PSMs
same,PSMs,[24],2 PSMs
same,PSMs,[25],6 PSMs
same,PSMs,[26],3 PSMs
same,PSMs,[27],2 PSMs
same,PSMs,[28],6 PSMs
same,PSMs,[29],46 PSMs
same,PSMs,[30],3 PSMs
same,PSMs,[31],6 PSMs
same,PSMs,[32],7 PSMs
same,PSMs,[33],2 PSMs
same,PSMs,[34],3 PSMs
same,PSMs,[35],2 PSMs
